The values below are quoted from earlier work in publication PMC6163503.

The target in series [1] is JAK2 catalytic domain (Homo sapiens) (UniProt O60674). Put plainly: SPR.
For series [2], the target named is Aminopeptidase N (Homo sapiens) (UniProt P15144).
UniProt P15144, sequence (P15144 2-967): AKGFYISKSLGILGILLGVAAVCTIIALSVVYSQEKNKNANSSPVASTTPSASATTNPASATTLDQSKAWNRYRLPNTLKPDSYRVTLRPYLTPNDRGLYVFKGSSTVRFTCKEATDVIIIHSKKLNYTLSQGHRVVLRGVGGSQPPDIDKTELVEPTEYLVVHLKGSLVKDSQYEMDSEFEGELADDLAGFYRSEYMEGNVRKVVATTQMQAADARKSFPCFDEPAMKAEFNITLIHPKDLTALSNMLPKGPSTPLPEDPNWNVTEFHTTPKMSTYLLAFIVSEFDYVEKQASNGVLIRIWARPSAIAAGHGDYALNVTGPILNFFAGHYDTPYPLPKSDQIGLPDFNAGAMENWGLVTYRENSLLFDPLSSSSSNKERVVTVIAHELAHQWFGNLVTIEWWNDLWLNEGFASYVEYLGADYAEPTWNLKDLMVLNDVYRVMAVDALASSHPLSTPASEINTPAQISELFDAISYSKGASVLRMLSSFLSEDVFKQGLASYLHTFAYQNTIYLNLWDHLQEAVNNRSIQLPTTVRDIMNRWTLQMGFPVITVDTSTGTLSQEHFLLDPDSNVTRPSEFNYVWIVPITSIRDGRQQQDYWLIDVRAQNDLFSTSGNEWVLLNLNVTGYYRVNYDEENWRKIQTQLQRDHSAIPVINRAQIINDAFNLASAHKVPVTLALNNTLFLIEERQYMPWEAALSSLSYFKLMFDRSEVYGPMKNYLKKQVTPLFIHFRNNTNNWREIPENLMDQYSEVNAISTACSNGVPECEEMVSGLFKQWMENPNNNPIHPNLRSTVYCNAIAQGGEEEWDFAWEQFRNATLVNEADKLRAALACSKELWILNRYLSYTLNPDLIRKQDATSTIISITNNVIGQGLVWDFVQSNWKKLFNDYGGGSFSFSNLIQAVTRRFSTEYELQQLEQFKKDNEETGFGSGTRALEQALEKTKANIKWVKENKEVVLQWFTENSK

UniProt O60674, sequence (O60674 849-1124): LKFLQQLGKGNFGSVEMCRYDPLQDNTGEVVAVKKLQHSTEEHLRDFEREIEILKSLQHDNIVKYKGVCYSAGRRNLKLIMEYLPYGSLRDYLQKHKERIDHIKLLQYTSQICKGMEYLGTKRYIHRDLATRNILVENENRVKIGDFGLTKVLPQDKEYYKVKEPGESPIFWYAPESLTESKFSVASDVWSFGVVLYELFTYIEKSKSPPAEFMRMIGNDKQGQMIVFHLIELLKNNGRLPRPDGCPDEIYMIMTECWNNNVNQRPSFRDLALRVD

Usually Kd stands for the equilibrium constant for the complex coming apart. On to “SOCS3 ESS peptide ESS (from UniProt O14543)”, for which the dissociation constant (Kd) in series [1] is above 1000 µM.

Consider “SOCS3 KIR peptide KIR (from UniProt O14543)”, for which the Kd in series [1] is 2.03 µM. Consider “SOCS3 KIRESS peptide KIRESS (from UniProt O14543)”, for which, in series [1], the Kd is 1.86 µM. One may read the Ki as the dissociation constant of the complex between target and ligand, obtained from inhibition or displacement. For the substance cyc-LHSPW, in series [2], the Ki is 24.7 µM.
